# Reference: patent US20030139571A1
# “And” between values parts separate entries of the source, which are not always exact repeats. Identical values can stand only once.
# Columns and labels:
# [1] = biological target: biotinylated CCR5 Nt sulfopeptide 2-18
# [2] = biological target: biotinylated CCR5 Nt sulfopeptide 2-18; assay: direct ELISA, biotinylated peptide on streptavidin plate, complex titrated (CD4-IgG2 concentration), anti-human IgG-HRP
# [3] = biological target: biotinylated CCR5 Nt sulfopeptide 2-18; assay: peptide ELISA, gp120/CD4-IgG2 complexes
# [4] = biological target: gp120JR-FL/CD4-IgG2 complex (HIV-1 JR-FL)
# [5] = biological target: gp120DH123/CD4-IgG2 complex (HIV-1 DH123); assay: SPR, complex 50 nM over immobilised sulfopeptide 2-18 with MAb (150 mM [sic])
# [6] = biological target: CCR5 on L1.2-CCR5+ cells (Homo sapiens (Human)) (UniProt P51681)
# [7] = biological target: biotinylated CCR5 Nt sulfopeptide 10-18; assay: ELISA, biotinylated peptide on streptavidin plate, anti-human IgG-HRP
# [8] = biological target: biotinylated CCR5 Nt sulfopeptide 6-16; assay: as above
# [9] = biological target: biotinylated CCR5 Nt sulfopeptide 8-15; assay: as above
# [10] = biological target: biotinylated CCR5 Nt sulfopeptide 10-15; assay: as above
# gp120JR-FL (HIV-1 JR-FL) = gp120JR-FL (HIV-1 JR-FL) (UniProt P20871); assay: cell-based or functional assay
# [11] = biological target: CCR5 on L1.2-CCR5+ cells (Homo sapiens (Human)) (UniProt P51681); remark: listed apart in the source
substance,measurement,setting,value
gp120JR-FL K421A/CD4-IgG2 complex,fold decrease in binding vs wild-type gp120JR-FL,[1],5 fold and 10 fold
gp120DH123/CD4-IgG2 complex,IC50,[2],5 nM
same,fold less binding than gp120JR-FL,[3],5 fold
gp120JR-FL R326A/CD4-IgG2 complex,fold decrease in binding vs wild-type gp120JR-FL,[1],> 10 fold
anti-gp120 MAb 17b (antibody),% inhibition of complex binding to sulfopeptide 2-18,[4],> 90%
same,% inhibition of complex binding to sulfopeptide 2-18,[5],> 90%
gp120JR-FL I325A/CD4-IgG2 complex,fold decrease in binding vs wild-type gp120JR-FL,[1],> 10 fold
gp120JR-FL R419A/CD4-IgG2 complex,fold decrease in binding vs wild-type gp120JR-FL,[1],5 fold and 10 fold
gp120JR-FL R469A (from UniProt P20871 32-503),fold lower avidity than wild type,CD4-IgG2,5 fold and 10 fold
gp120JR-FL/CD4-IgG2 complex,IC50,[2],1 nM
same,m.f.i.,[6],40 m.f.i.
same,fold lower avidity than for sulfopeptide 2-18,[7],3 fold
same,fold less avid than for sulfopeptide 2-18,[8],> 10 fold
same,fold less avid than for sulfopeptide 2-18,[9],> 10 fold
same,fold less avid than for sulfopeptide 2-18,[10],> 10 fold
CCR5 Nt peptide S-3/10/14,inhibition of entry of Nlluc+env- particles pseudotyped with HIV-1JR-FL envelope (luciferase; HeLa-CD4+CCR5+ and U87MG-CD4+CCR5+ cells; peptide 100 µM),gp120JR-FL (HIV-1 JR-FL),50%
gp120JR-FL P311A/CD4-IgG2 complex,fold decrease in binding vs wild-type gp120JR-FL,[11],5 fold and 10 fold
gp120JR-FL R440A (from UniProt P20871 32-503),fold lower avidity than wild type,CD4-IgG2,5 fold and 10 fold
gp120JR-FL Y316A/CD4-IgG2 complex,fold decrease in binding vs wild-type gp120JR-FL,[11],5 fold and 10 fold
gp120JR-FL R444A/CD4-IgG2 complex,fold decrease in binding vs wild-type gp120JR-FL,[1],5 fold and 10 fold
gp120JR-FL S306A/CD4-IgG2 complex,fold decrease in binding vs wild-type gp120JR-FL,[11],5 fold and 10 fold
gp120JR-FL Q422A/CD4-IgG2 complex,fold decrease in binding vs wild-type gp120JR-FL,[1],5 fold and 10 fold
gp120JR-FL D324A/CD4-IgG2 complex,fold decrease in binding vs wild-type gp120JR-FL,[1],> 10 fold
gp120JR-FL G310A/CD4-IgG2 complex,fold decrease in binding vs wild-type gp120JR-FL,[11],10 fold and 5 fold
anti-V3 loop MAb 19b (antibody),% inhibition of complex binding to sulfopeptide 2-18,[4],> 90%
same,% inhibition of complex binding to sulfopeptide 2-18,[5],80%
gp120JR-FL I420A/CD4-IgG2 complex,fold decrease in binding vs wild-type gp120JR-FL,[1],5 fold and 10 fold
gp120JR-FL R313A/CD4-IgG2 complex,fold decrease in binding vs wild-type gp120JR-FL,[11],5 fold and 10 fold
gp120JR-FL T303A/CD4-IgG2 complex,fold decrease in binding vs wild-type gp120JR-FL,[1],> 10 fold
gp120JR-FL W427A (from UniProt P20871 32-503),fold lower avidity than wild type,CD4-IgG2,5 fold and 10 fold
gp120JR-FL N301A/CD4-IgG2 complex,fold decrease in binding vs wild-type gp120JR-FL,[1],> 10 fold
CCR5 Nt peptide S-10/14,inhibition of entry of Nlluc+env- particles pseudotyped with HIV-1JR-FL envelope (luciferase; HeLa-CD4+CCR5+ and U87MG-CD4+CCR5+ cells; peptide 100 µM),gp120JR-FL (HIV-1 JR-FL),50%
gp120JR-FL I322A/CD4-IgG2 complex,fold decrease in binding vs wild-type gp120JR-FL,[1],> 10 fold
gp120JR-FL R298A/CD4-IgG2 complex,fold decrease in binding vs wild-type gp120JR-FL,[1],> 10 fold
anti-gp120 MAb 48d (antibody),% inhibition of complex binding to sulfopeptide 2-18,[4],> 90%
same,% inhibition of complex binding to sulfopeptide 2-18,[5],> 90%
gp120JR-FL F315A/CD4-IgG2 complex,fold decrease in binding vs wild-type gp120JR-FL,[11],5 fold and 10 fold
